Source: the nanobody polyreactivity screen of Harvey et al. (2022)

test: yeast display, Sf9 membrane polyspecificity reagent, FACS + sequencing; frameworks hold sequencing errors
Procedure, shortened: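 Nanobodies from a synthetic yeast display library (Saccharomyces cerevisiae BJ5465), induced 36–48 hours with galactose, were stained 1 hour at 4 °C with 10% biotinylated, detergent-solubilized Sf9 membrane reagent, enriched on streptavidin microbeads, then FACS-sorted. Anti-HA (expression) and streptavidin (reagent binding) fluorescence set low and high (top ~1%) gates. Polyreactivity labels come from the gate of origin. Genes were colony-PCR amplified, MiSeq 2 × 250 sequenced and filtered by CDR length.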

Row | Sequence | polyreactivity (PSR sort gate)
1 | QVQLVESGGGLVQAGGSLRLSCAASGFIFRFYAMGWYRQAPGKERELVAGISSSGGSTYYADSLKGRFTISRDNAKTTVYLQMNSLKPEDTAVYYCNAKRSDQSSKTFNYWGQGTQVTVSS | low polyreactivity
2 | QVQLVESGGGLVQAGGSLRLSCAASGFIFRFYAMGWYRQAPGKERELVAGISSSGGSTYYADSVKGRFTISRDNAKNTVYLQMNSLKPEDTAVYYCNAKRSDQSSKTFNYWGQGTQVTVSS | low polyreactivity
3 | QVQLVESGGGLVQAGGSLRLSCAASGFIFRFYAMGWYRQAPGKERELVASISRRAGRTYYADSVKGRFTISRDNAKNTVYLQMNSLKPEDTAVYYCAASGFGSFRYSSTYDYWGQCTQVTVSS | high polyreactivity
4 | QVQLVESGGGLVQAGGSLRLSCAASGFIFRGNTMGWYRQAPGKERELVAAISASGGSTYYADSVKGRFTISRDNAKNTVYLQMNSLKPEDTAVYYCNVAVIYRSRPYWYGMDYWGQGTQVTVSS | high polyreactivity
5 | QVQLVESGGGLVQAGGSLRLSCAASGFIFRGYAMGWYRQAPGKERELVAAISRRGGSTYYADSVKGRFTISRHNAKNTVYLLMNSLKPEDTAVYYCNADTTQQGNVRVGYWGQGTQVTVSS | high polyreactivity
6 | QVQLVESGGGLVQAGGSLRLSCAASGFIFRGYAMGWYRQAPGKERELVAAISTGGGRTYYADSVKGRFTISRDNAKNTVYLQMNSLKPEDTAVYYCNRRSYTQVLMDYWGQGTQVTVSS | high polyreactivity
7 | QVQLVESGGGLVQAGGSLRLSCAASGFIFRHNGMGWYRQAPGKERELVAAITKRGGDTYYADSVKGRFTISRDNAKNSVYLQMISLKREDTAVYYCTVDVRYPVSFDYDYWGQGNQVTVSS | low polyreactivity
8 | QVQLVESGGGLVQAGGSLRLSCAASGFIFRHYAMGWYRQAPGKEREFVAAISYRGDSTYYADSVKGRFTISRDNAKNTVYLQMNSLKPEDTAVYYCAATYVSSAYYSYDYWGQGTQVTVSS | high polyreactivity
9 | QVQLVESGGGLVQAGGSLRLSCAASGFIFRHYAMGWYRQAPGKERELVAGINTSGGSTHYADSVKGRFTISRDNAKNTVYLQMNSLKPEDTAVYYCAADVYRYYAGSRYYYWGQGSQVTVSS | low polyreactivity
10 | QVQLVESGGGLVQAGGSLRLSCAASGFIFRINAMGWYRQAPGKERELVAAITSSGGSTYYADSVKGRFTISRDNAKNTVYLQMNSLKPEDTAVYYCAASRPRPPSSRRMDYWGQGTQVTVSS | high polyreactivity
11 | QVQLVESGGGLVQAGGSLRLSCAASGFIFRIYAMGWYRQAPGKERELVAAITWDGVSTYYADSVKGRFTISRDNAKNTVYLQMNSLKPEDTAVFYCAARKRSYPYYYWGQGTQVNVSS | high polyreactivity
12 | QVQLVESGGGLVQAGGSLRLSCAASGFIFRKYAMGWYRQAPGKERELVAAITASGGSTYYGDSVKGRFTISRDNAKNTVYLQLNSLKPEDTAVYYCATDFHGAERWLKYVYWGQGTQVTVSS | high polyreactivity
13 | QVQLVESGGGLVQAGGSLRLSCAASGFIFRKYAMGWYRQAPGKERELVAAITSSGGSTYYAGSVKGRFTISRDNAKNTVYLQMNSLKPEDTAVYYCAARLKQSGHDYWGQGTQVTVSS | high polyreactivity
14 | QVQLVESGGGLVQAGGSLRLSCAASGFIFRLYAMGWYRQAPGKERELVAALSSGTSTYYADSVKGRFTISRDNAKNTVYLQMNSLKPEDSAVYYCAAVPRVNWSRYVYFWYDYWGQGTQVTVSS | high polyreactivity
15 | QVQLVESGGGLVQAGGSLRLSCAASGFIFRNYAMGWYRQAPGKERELVAAITGRGTYTYYADSVKGRFTISRDNAKNTVYLQMNSLKPEDTAVYYCAARSLALVYRKYDYWGQGTQVTVSS | high polyreactivity
16 | QVQLVESGGGLVQAGGSLRLSCAASGFIFRQNAMGWSRQAPGKDRELVAAISNAGITNYADSVKGRFTISRDNAKITVYLQMNSLKPEDTAVYYCAAVEFRDSTFVVVSSPTSKSDYWGQGTQVTVSS | low polyreactivity
